Measurements taken from patent publication US20250304677A1 (VIB VZW, published 2025).

Experiments:
[1] = molecular target: T1, mouse folate receptor alpha (mFRα), recombinant protein (mouse, UniProt P35846 25-232); assay: BLI off-rate screening, crude periplasmic extract, biotinylated mouse FRα on streptavidin biosensors
T1 construct: Bought recombinant proteins (e.g. biotinylated, Acro Biosystems FO1-M82E9); also called mFOLR1; Ms FOLR1
Description: (§1) Non-redundant clones were tested as crude periplasmatic extracts for binding analysis to human FRα and mouse FRα proteins captured on streptavidin biosensors in BLI. Variants P0150001 and P0150005 grown in the same 96-well plates were included as controls.

[2] = molecular target: T2, human folate receptor alpha (hFRα), recombinant protein (human, UniProt P15328 25-233); assay: BLI off-rate screening, crude periplasmic extract, biotinylated human FRα on streptavidin biosensors
T2 construct: Bought recombinant proteins (His-tagged, or biotinylated via Avi-tag, e.g. AcroBiosystems FO1-H82E2, F01-H52H1); also called hFOLR1; huFOLR1
T2 sequence (P15328 25-233 limits assumed): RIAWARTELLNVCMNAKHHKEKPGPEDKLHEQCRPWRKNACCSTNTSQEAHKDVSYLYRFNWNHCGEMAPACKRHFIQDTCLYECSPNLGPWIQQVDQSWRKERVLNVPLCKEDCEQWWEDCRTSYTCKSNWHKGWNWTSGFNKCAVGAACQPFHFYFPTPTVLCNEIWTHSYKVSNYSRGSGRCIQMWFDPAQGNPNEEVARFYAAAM
Description: as §1

[3] = molecular target: T2, human folate receptor alpha (hFRα), …; assay: BLI off-rate analysis
[4] = molecular target: T1, mouse folate receptor alpha (mFRα), …; assay: BLI off-rate analysis
[5] = molecular target: T2, human folate receptor alpha (hFRα), …; assay: BLI, Avi-biotinylated FRα on streptavidin biosensors, VHH 100 nM
Description: (§2) The binding of humanized variants of 2HFO42 was assessed by kinetic binding analysis to mouse and human FRα protein, biotinylated via an Avi-tag, captured on streptavidin biosensors by biolayer interferometry ^{∘}BLI), essentially as described earlier. VHHs were analysed at 100 nM concentration, and off-rates were determined using fitting of 1:1 langmurian interaction. Dissociation constants were compared to 2HFO42^{∘}Q1E, Q5V, Q108L) ^{∘}P101500004) and 2MFR67 ^{∘}Q1E, Q5V, Q108L) ^{∘}P0150000), respectively.

[6] = molecular target: T1, mouse folate receptor alpha (mFRα), …; assay: as above
Description: as §2

[7] = molecular target: T3, rhesus monkey folate receptor alpha, recombinant (rhesus monkey, UniProt F7BP60 25-233); assay: BLI, VHH captured by anti-FLAG antibody on mouse Fc biosensors
T3 construct: also called rhFolR1; rhesus macaque FRα
T3 sequence (F7BP60 entry or part of it): as the sequence (P15328 25-233 limits assumed) above, with I2T, W4R, R37K, A146P, H171Y counted along it
Method in brief: (§3)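 Biolayer interferometry was used to measure binding of VHHs to human, mouse and rhesus monkey folate receptor alpha. Each VHH was first captured on mouse Fc biosensors with an anti-FLAG tag antibody. A 1:1 binding model was applied to derive kon, koff and the equilibrium dissociation constant (KD).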

[8] = molecular target: T1, mouse folate receptor alpha (mFRα), …; assay: as above
Method in brief: as §3

[9] = molecular target: T2, human folate receptor alpha (hFRα), …; assay: BLI, Avi-biotinylated FRα
Description: (§4) Purified VHHs ^{∘}100 nM) were analysed for binding to avi-tagged biotinylated FRα protein captured on streptavidin-biosensors via BLI.
(§5) Off-rates of purified variants were determined to human, mouse, and cynomolgus FRα in BLI. In addition, binding of the affinity optimised variants to cell-expressed human FRα on HeLa cells was determined by flow cytometry ^{∘}FIG. 10 B).

[10] = molecular target: T1, mouse folate receptor alpha (mFRα), …; assay: BLI, Avi-biotinylated FRα
Description: as §4, §5

[11] = molecular target: T2, human folate receptor alpha (hFRα), …; assay: BLI
Method in brief: (§6)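 Biotinylated human and mouse folate receptor alpha were immobilised on streptavidin biosensors, and off-rates were read by biolayer interferometry, with a 1:1 binding model applied in the calculation. Each variant's koff is expressed as a signed fold change relative to its wild-type VHH, positive as wild-type over variant for a better off-rate and negative as variant over wild-type for a worse one.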

[12] = molecular target: T1, mouse folate receptor alpha (mFRα), …; assay: BLI
Method in brief: as §6

[13] = molecular target: T2, human folate receptor alpha (hFRα), …; assay: BLI, purified VHH
Method in brief: (§7)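 Off-rates to folate receptor alpha from human, mouse and cynomolgus were measured by biolayer interferometry. The VHH proteins tested were made with a flag3-His6 tag in TG-1 E. coli at 0.5 L scale and isolated from the periplasm on Ni Sepharose FastFlow columns.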

[14] = molecular target: T4, cynomolgus folate receptor alpha, recombinant (cynomolgus, UniProt A0A2K5U044 25-233); assay: BLI, purified VHH
T4 construct: also called cyFOLR1; cynomolgus FRα
T4 sequence (A0A2K5U044 entry or part of it): as the sequence (P15328 25-233 limits assumed) above, with I2T, W4R, R37K, A146P, H171Y counted along it
Method in brief: as §7

[15] = molecular target: T1, mouse folate receptor alpha (mFRα), …; assay: BLI, purified VHH
Method in brief: as §7

[16] = molecular target: T5, human folate receptor alpha expressed on cells (transfected HEK293T, HeLa, MCF7, MDA-MB-231) (human, UniProt P15328 25-234); assay: flow cytometry on HeLa cells, anti-Flag detection
T5 construct: HEK293T transiently transfected with human FOLR1; also called native human FRα; cell-expressed human FOLR1
T5 sequence (P15328 25-234 limits assumed): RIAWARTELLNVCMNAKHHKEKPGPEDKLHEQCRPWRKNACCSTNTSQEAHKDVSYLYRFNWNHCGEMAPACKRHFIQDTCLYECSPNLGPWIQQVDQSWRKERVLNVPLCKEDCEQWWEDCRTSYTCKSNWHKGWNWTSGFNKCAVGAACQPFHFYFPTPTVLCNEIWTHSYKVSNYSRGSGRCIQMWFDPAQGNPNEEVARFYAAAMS
Description: EC₅₀ values are found in Table 9. Detection of VHH cell binding was done through anti-Flag M2 mIgG1 followed by anti-mFc-PE in flow cytometry. Results are depicted as mean fluorescence intensity ^{∘}MFI).
as §5

T1 sequence (P35846 25-232 limits assumed): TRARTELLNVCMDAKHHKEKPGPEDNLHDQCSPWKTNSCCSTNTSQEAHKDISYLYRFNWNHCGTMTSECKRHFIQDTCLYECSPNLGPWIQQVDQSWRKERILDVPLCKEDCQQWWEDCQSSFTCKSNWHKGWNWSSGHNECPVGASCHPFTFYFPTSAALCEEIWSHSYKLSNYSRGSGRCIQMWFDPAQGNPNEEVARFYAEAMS

Row | Binder | binding result [1] | binding result [2] | koff [3] [s⁻¹] | koff [4] [s⁻¹] | also measured
1 | P01500079: P01500001[E1D]Flag3-His6-GS-NT (VHH, Entry includes tags, linker and NT(8-13); also called humanised 2HFO42, P01500079) VHH: DVQLVESGGGLVQPGGSLRLSCAASGSGFSGMIMGWYRQAPGKQRELVATVTSHGTTNYADSVKGRFTISRDNAKNTVYLQMNSLRPEDTAVYYCNAHFPGIYWGKGTLVTVSS | – | – | 0.0101 | 0.00224 | –
2 | P01500006: 2HF042(Q1E, Q5V, A14P, V40A, L79Y, K83R, Q108L)-FLAG3-HIS6 (VHH, Entry includes the tags; also called P0150006) VHH: EVQLVESGGGLVQPGGSLRLSCAASGSGFSGMIMGWYRQAPGKQRELVATVTSHGTTNYADSVKGRFTISRDNAKNTVYLQMNSLRPEDTAVYYCNAHFPGIYWGKGTLVTVSS | – | – | – | – | koff [5]: 0.012 s⁻¹; koff [6]: 0.00252 s⁻¹; Kd [7]: 27.7 nM; koff [7]: 0.016 s⁻¹; kon [7]: 577000 M⁻¹ s⁻¹; Kd [8]: 6.77 nM; koff [8]: 0.00249 s⁻¹; kon [8]: 367000 M⁻¹ s⁻¹; koff [9]: 0.00967 s⁻¹; koff [10]: 0.00189 s⁻¹; koff [11]: 0.0132 s⁻¹; nm (Fold wt) [11]: 1; koff [12]: 0.00162 s⁻¹; nm (Fold wt) [12]: 1; koff [13]: 0.00947 s⁻¹; koff [14]: 0.00158 s⁻¹; koff [15]: 0.00174 s⁻¹; EC50 [16]: 32.4 nM; MFI top [16]: 35300 MFI
3 | P01500074: P01500001[E1D, G26E, I33L]Flag3-His6-GS-NT (VHH, Entry includes tags, linker and NT(8-13)) VHH: DVQLVESGGGLVQPGGSLRLSCAASESGFSGMLMGWYRQAPGKQRELVATVTSHGTTNYADSVKGRFTISRDNAKNTVYLQMNSLRPEDTAVYYCNAHFPGIYWGKGTLVTVSS | – | – | 0.00181 | 0.000328 | –
4 | P01500077: P01500001[E1D, G28T, S30I, N73P]Flag3-His6-GS-NT (VHH, Entry includes tags, linker and NT(8-13)) VHH: DVQLVESGGGLVQPGGSLRLSCAASGSTFIGMIMGWYRQAPGKQRELVATVTSHGTTNYADSVKGRFTISRDPAKNTVYLQMNSLRPEDTAVYYCNAHFPGIYWGKGTLVTVSS | – | – | 0.00217 | 0.000335 | –
5 | [I33L] (VHH, library clone tested as crude periplasmic extract; also called P01500001[I33L]) VHH: EVQLVESGGGLVQPGGSLRLSCAASGSGFSGMLMGWYRQAPGKQRELVATVTSHGTTNYADSVKGRFTISRDNAKNTVYLQMNSLRPEDTAVYYCNAHFPGIYWGKGTLVTVSS | binds | binds | – | – | –
6 | [N73G] (VHH, library clone tested as crude periplasmic extract; also called P01500001[N73G]) VHH: EVQLVESGGGLVQPGGSLRLSCAASGSGFSGMIMGWYRQAPGKQRELVATVTSHGTTNYADSVKGRFTISRDGAKNTVYLQMNSLRPEDTAVYYCNAHFPGIYWGKGTLVTVSS | binds | binds | – | – | –
7 | [I33F] (VHH, library clone tested as crude periplasmic extract; also called P01500001[I33F]) VHH: EVQLVESGGGLVQPGGSLRLSCAASGSGFSGMFMGWYRQAPGKQRELVATVTSHGTTNYADSVKGRFTISRDNAKNTVYLQMNSLRPEDTAVYYCNAHFPGIYWGKGTLVTVSS | binds | binds | – | – | –
8 | P01500007: 2HF042(Q1E, Q5V, A14P, V40A, L79Y, K83R, K105Q, Q108L)-FLAG3-HIS6 (VHH, Entry includes the tags) VHH: EVQLVESGGGLVQPGGSLRLSCAASGSGFSGMIMGWYRQAPGKQRELVATVTSHGTTNYADSVKGRFTISRDNAKNTVYLQMNSLRPEDTAVYYCNAHFPGIYWGQGTLVTVSS | – | – | – | – | koff [5]: 0.0164 s⁻¹; koff [6]: 0.00292 s⁻¹
9 | P01500076: P01500001[E1D, G26E, G28T, S30I, I33L]Flag3-His6-GS-NT (VHH, Entry includes tags, linker and NT(8-13)) VHH: DVQLVESGGGLVQPGGSLRLSCAASESTFIGMLMGWYRQAPGKQRELVATVTSHGTTNYADSVKGRFTISRDNAKNTVYLQMNSLRPEDTAVYYCNAHFPGIYWGKGTLVTVSS | – | – | 0.00112 | 0.000164 | –

Now from value to binder, other results behind:

Row | binding result [1] | binding result [2] | koff [3] [s⁻¹] | koff [4] [s⁻¹] | Binder | also measured
10 | binds | binds | – | – | [G28T] (VHH, library clone tested as crude periplasmic extract; also called P01500001[G28T]) VHH: EVQLVESGGGLVQPGGSLRLSCAASGSTFSGMIMGWYRQAPGKQRELVATVTSHGTTNYADSVKGRFTISRDNAKNTVYLQMNSLRPEDTAVYYCNAHFPGIYWGKGTLVTVSS | –
11 | – | – | 0.000307 | 2.1e-05 | P01500072: P01500001[E1D, G26E, G28P, D72E, N73G]Flag3-His6-GS-NT (VHH, Entry includes tags, linker and NT(8-13)) VHH: DVQLVESGGGLVQPGGSLRLSCAASESPFSGMIMGWYRQAPGKQRELVATVTSHGTTNYADSVKGRFTISREGAKNTVYLQMNSLRPEDTAVYYCNAHFPGIYWGKGTLVTVSS | –
12 | binds | binds | – | – | [S30I] (VHH, library clone tested as crude periplasmic extract; also called P01500001[S30I]) VHH: EVQLVESGGGLVQPGGSLRLSCAASGSGFIGMIMGWYRQAPGKQRELVATVTSHGTTNYADSVKGRFTISRDNAKNTVYLQMNSLRPEDTAVYYCNAHFPGIYWGKGTLVTVSS | –
13 | – | – | 0.00346 | 0.000497 | P01500073: P01500001[E1D, G28T, S30I]Flag3-His6-GS-NT (VHH, Entry includes tags, linker and NT(8-13)) VHH: DVQLVESGGGLVQPGGSLRLSCAASGSTFIGMIMGWYRQAPGKQRELVATVTSHGTTNYADSVKGRFTISRDNAKNTVYLQMNSLRPEDTAVYYCNAHFPGIYWGKGTLVTVSS | –
14 | binds | binds | – | – | [V51R] (VHH, library clone tested as crude periplasmic extract; also called P01500001[V51R]) VHH: EVQLVESGGGLVQPGGSLRLSCAASGSGFSGMIMGWYRQAPGKQRELVATRTSHGTTNYADSVKGRFTISRDNAKNTVYLQMNSLRPEDTAVYYCNAHFPGIYWGKGTLVTVSS | –
15 | – | – | 0.00266 | 0.000326 | P01500071: P01500001[E1D, G26E, I33F]Flag3-His6-GS-NT (VHH, Entry includes tags, linker and NT(8-13)) VHH: DVQLVESGGGLVQPGGSLRLSCAASESGFSGMFMGWYRQAPGKQRELVATVTSHGTTNYADSVKGRFTISRDNAKNTVYLQMNSLRPEDTAVYYCNAHFPGIYWGKGTLVTVSS | –
16 | – | – | 0.00151 | 0.000192 | P01500070: P01500001[E1D, I33F, N73P]Flag3-His6-GS-NT (VHH, Entry includes tags, linker and NT(8-13); produced in HEK-F cells) VHH: DVQLVESGGGLVQPGGSLRLSCAASGSGFSGMFMGWYRQAPGKQRELVATVTSHGTTNYADSVKGRFTISRDPAKNTVYLQMNSLRPEDTAVYYCNAHFPGIYWGKGTLVTVSS | –
17 | – | – | 0.00125 | 0.000125 | P01500075: P01500001[E1D, I33L, N73P]Flag3-His6-GS-NT (VHH, Entry includes tags, linker and NT(8-13)) VHH: DVQLVESGGGLVQPGGSLRLSCAASGSGFSGMLMGWYRQAPGKQRELVATVTSHGTTNYADSVKGRFTISRDPAKNTVYLQMNSLRPEDTAVYYCNAHFPGIYWGKGTLVTVSS | –
